# T1: NCC-pBIND (full-length NCC fused to the GAL4 DNA-binding domain) (UniProt P59158 1-1002)
# T1 construct: source: COS-7, transiently transfected, mammalian two-hybrid fusion
# T1 sequence (looked up): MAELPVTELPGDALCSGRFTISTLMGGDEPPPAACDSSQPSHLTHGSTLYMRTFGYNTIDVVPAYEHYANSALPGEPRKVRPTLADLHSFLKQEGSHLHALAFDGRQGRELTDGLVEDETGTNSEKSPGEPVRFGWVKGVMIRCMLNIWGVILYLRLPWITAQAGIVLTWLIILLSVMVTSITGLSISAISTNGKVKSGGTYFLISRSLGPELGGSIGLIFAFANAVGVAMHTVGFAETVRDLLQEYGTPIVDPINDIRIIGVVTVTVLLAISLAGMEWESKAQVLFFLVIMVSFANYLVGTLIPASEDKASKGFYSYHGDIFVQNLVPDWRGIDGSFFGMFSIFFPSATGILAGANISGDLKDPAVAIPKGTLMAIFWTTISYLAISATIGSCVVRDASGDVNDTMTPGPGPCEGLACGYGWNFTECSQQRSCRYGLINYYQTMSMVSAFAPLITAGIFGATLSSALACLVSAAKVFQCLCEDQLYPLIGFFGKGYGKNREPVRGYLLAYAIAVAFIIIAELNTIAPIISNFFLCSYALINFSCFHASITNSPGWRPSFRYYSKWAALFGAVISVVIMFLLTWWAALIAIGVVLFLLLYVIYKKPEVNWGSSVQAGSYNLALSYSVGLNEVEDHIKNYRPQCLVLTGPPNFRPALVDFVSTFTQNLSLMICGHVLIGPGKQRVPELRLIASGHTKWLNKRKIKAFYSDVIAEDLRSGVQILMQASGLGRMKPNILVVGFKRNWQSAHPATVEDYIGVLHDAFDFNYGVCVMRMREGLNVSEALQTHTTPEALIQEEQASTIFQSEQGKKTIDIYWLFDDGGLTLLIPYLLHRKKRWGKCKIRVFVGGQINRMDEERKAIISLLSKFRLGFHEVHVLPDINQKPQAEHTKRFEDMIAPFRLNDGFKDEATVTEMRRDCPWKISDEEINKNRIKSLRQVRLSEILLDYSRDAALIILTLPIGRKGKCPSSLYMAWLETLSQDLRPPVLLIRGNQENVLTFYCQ
# T2: thiazide-sensitive sodium chloride cotransporter (NCC) (mouse (endogenous in mDCT15 cells and …, UniProt P59158 1-1002))
# T2 construct: thiazide-sensitive sodium-chloride cotransporter (NCC), endogenous in mouse mDCT15 cells and mouse kidney cortex; Precipitated with an anti-NCC antibody coupled to resin (Pierce Co-Immunoprecipitation Kit); source: endogenous, mDCT15 whole cell lysate; endogenous, mouse kidney cortex homogenate
# T2 sequence (looked up): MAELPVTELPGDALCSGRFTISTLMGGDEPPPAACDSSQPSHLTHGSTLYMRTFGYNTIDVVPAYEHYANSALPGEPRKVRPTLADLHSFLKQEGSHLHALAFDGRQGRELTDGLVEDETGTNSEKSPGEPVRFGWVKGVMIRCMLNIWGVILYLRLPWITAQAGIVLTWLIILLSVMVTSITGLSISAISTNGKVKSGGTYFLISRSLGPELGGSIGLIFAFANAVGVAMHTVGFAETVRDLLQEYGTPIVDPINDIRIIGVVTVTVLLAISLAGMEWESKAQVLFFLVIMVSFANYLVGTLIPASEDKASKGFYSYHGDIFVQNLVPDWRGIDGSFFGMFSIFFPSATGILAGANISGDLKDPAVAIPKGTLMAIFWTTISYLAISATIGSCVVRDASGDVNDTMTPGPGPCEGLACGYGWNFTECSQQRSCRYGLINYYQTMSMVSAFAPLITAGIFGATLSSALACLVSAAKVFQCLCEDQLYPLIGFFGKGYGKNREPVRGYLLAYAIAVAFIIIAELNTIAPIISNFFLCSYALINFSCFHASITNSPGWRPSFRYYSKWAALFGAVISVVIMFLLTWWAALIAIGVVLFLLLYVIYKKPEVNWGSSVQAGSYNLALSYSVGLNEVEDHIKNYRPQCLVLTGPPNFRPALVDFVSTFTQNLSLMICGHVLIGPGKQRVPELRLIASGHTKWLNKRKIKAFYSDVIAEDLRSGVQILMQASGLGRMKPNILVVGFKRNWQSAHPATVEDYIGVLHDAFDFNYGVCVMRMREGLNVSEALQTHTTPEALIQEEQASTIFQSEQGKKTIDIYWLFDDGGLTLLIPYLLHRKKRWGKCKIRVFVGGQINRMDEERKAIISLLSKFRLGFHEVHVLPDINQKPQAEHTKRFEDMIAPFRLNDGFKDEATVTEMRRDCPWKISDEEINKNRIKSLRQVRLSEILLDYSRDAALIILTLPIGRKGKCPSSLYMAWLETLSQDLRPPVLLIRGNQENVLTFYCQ
# Columns and labels:
# Conditions in all cases: partners not purified
# [1] = target: T1, NCC-pBIND (full-length NCC fused to the …); assay: two-hybrid; Checkmate mammalian two-hybrid in transiently transfected COS-7 cells; NCC-pBIND (GAL4 DNA-binding domain) with α- or γ-pACT (VP16) and pG5luc; firefly luciferase normalized to Renilla, fold change of negative control (empty pBIND + pACT); with or without co-transfected SGK1 or WNK4; read 48 hours after transfection
# [2] = target: T2, thiazide-sensitive sodium chloride …; assay: co-IP; mDCT15 whole cell lysates (about 800 ug protein per column), anti-NCC antibody coupled to resin (Pierce Co-Immunoprecipitation Kit), eluate blotted for αENaC; cells treated with vehicle (EtOH), Aldo (100 nM, 48 hrs), Aldo + SGK1 inhibitor (GSK690394, 6 uM, 60 min) or SGK1 inhibitor alone
# [3] = target: T2, thiazide-sensitive sodium chloride …; assay: co-IP; mouse kidney cortex homogenates (RIPA buffer), anti-NCC antibody coupled to resin (Pierce Co-Immunoprecipitation Kit), eluate blotted for αENaC; mice on high salt (4%) chow treated with vehicle (25% DMSO in saline) or Aldo (4 ug/day, 10 d)
"two-hybrid luciferase signal, fold of negative control [1]","fold change of αENaC co-precipitated with NCC, Aldo + SGK1 inhibitor against vehicle [2] [fold change/vehicle]","fold change of αENaC co-precipitated with NCC, Aldo against vehicle [2] [fold change/vehicle]","fold change of αENaC relative to NCC in the CoIP fractions, Aldo against vehicle [2] [fold change/vehicle]","fold change of αENaC co-precipitated with NCC, Aldo against vehicle [3] [fold change/vehicle]","two-hybrid luciferase signal, fold of negative control, with SGK1 co-transfected [1]",Binder
4.33 fold change of negative control,–,–,–,–,–,"γ-pACT (full-length γENaC fused to the VP16 activation domain) (natural protein, UniProt Q9WU39 1-655, looked up, epithelial sodium channel (ENaC) gamma subunit, full-length clone in pACT; source: COS-7, transiently transfected, mammalian two-hybrid fusion) MAPGEKIKAKIKKNLPVRGPQAPTIKDLMHWYCLNTNTHGCRRIVVSRGRLRRLLWIAFTLTAVALIIWQCALLVFSFYTVSVSIKVHFQKLDFPAVTICNINPYKYSAVSDLLTDLDSETKQALLSLYGVKDVLDSTPRKRREAGSMRSTWEGTPPRFLNLIPLLVFNENEKGKARDFFTGRKRKISGKIIHKASNVMHVHESKKLVGFQLCSNDTSDCATYTFSSGINAIQEWYKLHYMNIMAQVPLEKKINMSYSAEELLVTCFFDGMSCDARNFTLFHHPMYGNCYTFNNRENATILSTSMGGSEYGLQVILYINEDEYNPFLVSSTGAKVLVHQQNEYPFIEDVGTEIETAMSTSIGMHLTESFKLSEPYSQCTEDGSDVPVTNIYNAAYSLQICLYSCFQTKMVEKCGCAQYSQPLPPAANYCNYQQHPNWMYCYYQLYQAFVREELGCQSVCKQSCSFKEWTLTTSLAQWPSEASEKWLLNVLTWDQSQQINKKLNKTDLAKLLIFYKDLNQRSIMESPANSIEMLLSNFGGQLGLWMSCSVVCVIEIIEVFFIDFFSIIARRQWQKAKDWWARRRTPPSTETPSSQQGQDNPALDTDDDLPTFTSAMRLPPAPEAPVPGTPPPRYNTLRLDSAFSSQLTDTQLTNEF"
–,1.55,2.05,1.55,3.07,–,"epithelial sodium channel alpha subunit (αENaC) (natural protein, UniProt Q61180 1-699, looked up, epithelial sodium channel (ENaC) alpha subunit, endogenous in mouse mDCT15 cells and mouse kidney cortex; Detected by immunoblot with an αENaC antibody in the NCC precipitate; source: endogenous, mDCT15 whole cell lysate; endogenous, mouse kidney cortex homogenate) MLDHTRAPELNLDLDLDVSNSPKGSMKGNNFKEQDLCPPLPMQGLGKGDKREEQALGPEPSEPRQPTEEEEALIEFHRSYRELFQFFCNNTTIHGAIRLVCSKHNRMKTAFWAVLWLCTFGMMYWQFALLFEEYFSYPVSLNINLNSDKLVFPAVTVCTLNPYRYTEIKEDLEELDRITEQTLFDLYKYNSSYTRQAGGRRRSTRDLRGALPHPLQRLRTPPPPNPARSARSASSSVRDNNPQVDRKDWKIGFQLCNQNKSDCFYQTYSSGVDAVREWYRFHYINILSRLPDTSPALEEEALGSFIFTCRFNQAPCNQANYSQFHHPMYGNCYTFNNKNNSNLWMSSMPGVNNGLSLTLRTEQNDFIPLLSTVTGARVMVHGQDEPAFMDDGGFNVRPGVETSISMRKEALDSLGGNYGDCTENGSDVPVKNLYPSKYTQQVCIHSCFQENMIKKCGCAYIFYPKPKGVEFCDYLKQSSWGYCYYKLQAAFSLDSLGCFSKCRKPCSVTNYKLSAGYSRWPSVKSQDWIFEMLSLQNNYTINNKRNGVAKLNIFFKELNYKTNSESPSVTMVSLLSNLGSQWSLWFGSSVLSVVEMAELIFDLLVITLIMLLHRFRSRYWSPGRGARGAREVASTPASSFPSRFCPHPTSPPPSLPQQGTTPPLALTAPPPAYATLGPSASPLDSAVPGSSACAPAMAL"
7.74 fold change of negative control,–,–,–,–,14.7 fold change of negative control,"α-pACT (full-length αENaC fused to the VP16 activation domain) (natural protein, UniProt Q61180 1-699, looked up, epithelial sodium channel (ENaC) alpha subunit, full-length clone in pACT; source: COS-7, transiently transfected, mammalian two-hybrid fusion) MLDHTRAPELNLDLDLDVSNSPKGSMKGNNFKEQDLCPPLPMQGLGKGDKREEQALGPEPSEPRQPTEEEEALIEFHRSYRELFQFFCNNTTIHGAIRLVCSKHNRMKTAFWAVLWLCTFGMMYWQFALLFEEYFSYPVSLNINLNSDKLVFPAVTVCTLNPYRYTEIKEDLEELDRITEQTLFDLYKYNSSYTRQAGGRRRSTRDLRGALPHPLQRLRTPPPPNPARSARSASSSVRDNNPQVDRKDWKIGFQLCNQNKSDCFYQTYSSGVDAVREWYRFHYINILSRLPDTSPALEEEALGSFIFTCRFNQAPCNQANYSQFHHPMYGNCYTFNNKNNSNLWMSSMPGVNNGLSLTLRTEQNDFIPLLSTVTGARVMVHGQDEPAFMDDGGFNVRPGVETSISMRKEALDSLGGNYGDCTENGSDVPVKNLYPSKYTQQVCIHSCFQENMIKKCGCAYIFYPKPKGVEFCDYLKQSSWGYCYYKLQAAFSLDSLGCFSKCRKPCSVTNYKLSAGYSRWPSVKSQDWIFEMLSLQNNYTINNKRNGVAKLNIFFKELNYKTNSESPSVTMVSLLSNLGSQWSLWFGSSVLSVVEMAELIFDLLVITLIMLLHRFRSRYWSPGRGARGAREVASTPASSFPSRFCPHPTSPPPSLPQQGTTPPLALTAPPPAYATLGPSASPLDSAVPGSSACAPAMAL"

# Source: publication PMC5482882, “Aldosterone Modulates the Association between NCC and ENaC” (Scientific Reports, 2017)
